Measurements as given in paper PMC9418156.

B1: CD98 (SLC3A2, 4F2hc): Qm (protein)
parent chain: MELQPPEASIAVVSIPRQLPGSHSEAGVQGLSAGDDSELGSHCVAQTGLELLASGDPLPSASQNAEMIETGSDCVTQAGLQLLASSDPPALASKNAEVTGTMSQDTEVDMKEVELNELEPEKQPMNAASGAAMSLAGAEKNGLVKIKVAEDEAEAAAAAKFTGLSKEELLKVAGSPGWVRTRWALLLLFWLGWLGMLAGAVVIIVRAPRCRELPAQKWWHTGALYRIGDLQAFQGHGAGNLAGLKGRLDYLSSLKVKGLVLGPIHKNQKDDVAQTDLLQIDPNFGSKEDFDSLLQSAKKKSIRVILDLTPNYRGENSWFSTQVDTVATKVKDALEFWLQAGVDGFQVRDIENLKDASSFLAEWQNITKGFSEDRLLIAGTNSSDLQQILSLLESNKDLLLTSSYLSDSGSTGEHTKSLVTQYLNATGNRWCSWSLSQARLLTSFLPAQLLRLYQLMLFTLPGTPVFSYGDEIGLDAAALPGQPMEAPVMLWDESSFPDIPGAVSANMTVKGQSEDPGSLLSLFRRLSDQRSKERSLLHGDFHAFSAGPGLFSYIRHWDQNERFLVVLNFGDVGLSAGLQASDLPASASLPAKADLLLSTQPGREEGSPLELERLKLEPHEGLLLRFPYAA
B2: CD98 (SLC3A2, 4F2hc): N506Q (protein)
parent chain: B1 parent chain
B3: CD98 (SLC3A2, 4F2hc): Tm (N365/381/424Q) (protein)
parent chain: B1 parent chain
B4: CD98 (SLC3A2, 4F2hc): N365Q (protein)
parent chain: B1 parent chain
B5: CD98 (SLC3A2, 4F2hc): tunicamycin (protein)
parent chain: B1 parent chain
B6: CD98 (SLC3A2, 4F2hc): N381Q (protein)
parent chain: B1 parent chain
B7: CD98 (SLC3A2, 4F2hc): N424Q (protein)
parent chain: B1 parent chain
B8: CD98 (SLC3A2, 4F2hc): Qm (N365/381/424/506Q) (protein)
parent chain: B1 parent chain
B9: CD98 (SLC3A2, 4F2hc): Dm (N381/424Q) (protein)
parent chain: B1 parent chain

Experiments:
[1] = cycloheximide chase, anti-FLAG blot; conditions: glycan lost; control: wild type
[2] = surface biotinylation, anti-LAT1 blot; conditions: glycan lost; control: wild type
[3] = brefeldin A washout, confocal time course; conditions: glycan lost; control: wild type
[4] = cell surface biotinylation, anti-FLAG blot; conditions: glycan lost; control: wild type
[5] = co-transfection with HA-LAT1, brefeldin washout, confocal; conditions: glycan lost; control: wild type
[6] = confocal, surface anti-CD98 vs anti-FLAG, HEK293; conditions: glycan lost; control: wild type
[7] = tunicamycin then surface biotinylation (Fig. S1); conditions: glycan lost; control: vehicle (DMSO)

Protein | localisation_or_trafficking [6] | other results
B1 |  | degradation_or_half_life, other: percent of initial protein after 6 h [1]: decreases, <20 vs >50; other: routing of partner LAT1 to plasma membrane [2]: abolishes; localisation_or_trafficking [3]: decreases; localisation_or_trafficking [4]: decreases; other: routing of partner LAT1 to plasma membrane [5]: decreases
B2 | no change | 
B3 | changes | 
B4 | no change | 
B5 |  | localisation_or_trafficking [7]: decreases
B6 | no change | 
B7 | no change | 
B8 | decreases | 
B9 | changes | 
